For two proteins, Km results are on record in publication PMC3972249.

Substrate in the series: Nc1ncnc2c1ncn2[C@@H]1O[C@H](COP(=O)(O)OP(=O)(O)OP(=O)(O)O)[C@@H](O)[C@H]1O
The series can be described thus: KM from ATP titration in ATP:PPi exchange assay. The series is classed as biochemical, Homo sapiens.

Numbering of substitutions follows the chain as printed. Names may count otherwise.

B1: NEDD8-activating enzyme (NAE), catalytic subunit UBA3 I310N (Homo sapiens; I310N) (protein)
chain: ADGEEPEKKRRRIEELLAEKMAVDGGCGDTGDWEGRWNHVKKFLERSGPFTHPDFEPSTESLQFLLDTCKVLVIGAGGLGCELLKNLALSGFRQIHVIDMDTIDVSNLNRQFLFRPKDIGRPKAEVAAEFLNDRVPNCNVVPHFNKIQDFNDTFYRQFHIIVCGLDSIIARRWINGMLISLLNYEDGVLDPSSIVPLIDGGTEGFKGNARVILPGMTACIECTLELYPPQVNFPMCTIASMPRLPEHCIEYVRMLQWPKEQPFGEGVPLDGDDPEHIQWIFQKSLERASQYNIRGVTYRLTQGVVKRINPAVASTNAVIAAVCATEVFKIATSAYIPLNNYLVFNDVDGLYTYTFEAERKENCPACSQLPQNIQFSPSAKLQEVLDYLTNSASLQMKSPAITATLEGKNRTLYLQSVTSIEERTRPNLSKTLKELGLVDGQELAVADVTTPQTVLFKLHFTS
notes: recombinant human UBA3 (isoform 1) in NAE complex; with NAEα (APPBP1); NEDD8
What is called Km is the concentration of substrate that gives half-maximal velocity. On to B1, for which the Km was 20 µM.

B2: NEDD8-activating enzyme (NAE), catalytic subunit UBA3 (NAEβ) (Homo sapiens) (protein)
chain: B1 chain with N309I
notes: as for B1
Regarding B2, the Km is 80 µM.
